Test results taken from paper PMC1635325 (Nucleic Acids Research, 2006).

B1: FLAG-GidA (natural protein, E. coli, UniProt P0A6U3 1-629, looked up)
chain: MFYPDPFDVIIIGGGHAGTEAAMAAARMGQQTLLLTHNIDTLGQMSCNPAIGGIGKGHLVKEVDALGGLMAKAIDQAGIQFRILNASKGPAVRATRAQADRVLYRQAVRTALENQPNLMIFQQAVEDLIVENDRVVGAVTQMGLKFRAKAVVLTVGTFLDGKIHIGLDNYSGGRAGDPPSIPLSRRLRELPLRVGRLKTGTPPRIDARTIDFSVLAQQHGDNPMPVFSFMGNASQHPQQVPCYITHTNEKTHDVIRSNLDRSPMYAGVIEGVGPRYCPSIEDKVMRFADRNQHQIFLEPEGLTSNEIYPNGISTSLPFDVQMQIVRSMQGMENAKIVRPGYAIEYDFFDPRDLKPTLESKFIQGLFFAGQINGTTGYEEAAAQGLLAGLNAARLSADKEGWAPARSQAYLGVLVDDLCTLGTKEPYRMFTSRAEYRLMLREDNADLRLTEIGRELGLVDDERWARFNEKLENIERERQRLKSTWVTPSAEAAAEVNAHLTAPLSREASGEDLLRRPEMTYEKLTTLTPFAPALTDEQAAEQVEIQVKYEGYIARQQDEIEKQLRNENTLLPATLDYRQVSGLSNEVIAKLNDHKPASIGQASRISGVTPAAISILLVWLKKQGMLRRSA

What was measured:
FLAG-GidA = molecular target: B1; assay: native gel or EMSA
SEC = molecular target: the molecule itself; assay: SEC

| stoichiometry N (FLAG-GidA) | Binder | stoichiometry N (SEC) |
| --- | --- | --- |
| 1 MnmE per GidA (α2β2, 2:2) | recombinant MnmE (rMnmE, 53 kDa) (natural protein, E. coli, UniProt P25522 1-454, looked up) MSDNDTIVAQATPPGRGGVGILRISGFKAREVAETVLGKLPKPRYADYLPFKDADGSVLDQGIALWFPGPNSFTGEDVLELQGHGGPVILDLLLKRILTIPGLRIARPGEFSERAFLNDKLDLAQAEAIADLIDASSEQAARSALNSLQGAFSARVNHLVEALTHLRIYVEAAIDFPDEEIDFLSDGKIEAQLNDVIADLDAVRAEARQGSLLREGMKVVIAGRPNAGKSSLLNALAGREAAIVTDIAGTTRDVLREHIHIDGMPLHIIDTAGLREASDEVERIGIERAWQEIEQADRVLFMVDGTTTDAVDPAEIWPEFIARLPAKLPITVVRNKADITGETLGMSEVNGHALIRLSARTGEGVDVLRNHLKQSMGFDTNMEGGFLARRRHLQALEQAAEHLQQGKAQLLGAWAGELLAEELRLAQQNLSEITGEFTSDDLLGRIFSSFCIGK |  |
|  | B1 | 2 |
